In FireProtDB (doi:10.1111/j.1432-1033.1988.tb14214.x):

B1: Protein S100-G, P02633 (parent)
chain: MSAKKSPEELKGIFEKYAAKEGDPNQLSKEELKLLLQTEFPSLLKGPSTLDELFEELDKNGDGEVSFEEFQVLVKKISQ

Variants of: B1
Conditions: Bos taurus; pH 7.1; 25 °C; Urea; CD; PIPES 20 mM; reversible: yes; structure 1IGV; whole UniProt chain shown

| Variant | ddG of mutation (higher = less stable) | denaturant m value | denaturant midpoint (higher = more stable) | unfolding free energy |
| --- | --- | --- | --- | --- |
| Y17F | 1.19 kcal/mol | 0.89 kcal/mol/M | 4.1 M | 3.59 kcal/mol |
| E21Q | -0.48 kcal/mol | 0.91 kcal/mol/M | 5.6 M | 5.26 kcal/mol |
| P24G | 1.19 kcal/mol | 0.79 kcal/mol/M | 4.7 M | 3.59 kcal/mol |
